Earlier results as cited in PMC6359508.

Target: actin microfilament (UniProt P68133)

Kd: 150 nM
Substance: V-ATPase B subunit (from UniProt P21281)
